# In article PMC10786891, “Massively parallel profiling of RNA-targeting CRISPR-Cas13d”:
# T1: EsCas13d, nuclease-dead (Eubacterium siraeum, UniProt B0MS50, R295A;H300A;R849A;H854A)
# T1 sequence: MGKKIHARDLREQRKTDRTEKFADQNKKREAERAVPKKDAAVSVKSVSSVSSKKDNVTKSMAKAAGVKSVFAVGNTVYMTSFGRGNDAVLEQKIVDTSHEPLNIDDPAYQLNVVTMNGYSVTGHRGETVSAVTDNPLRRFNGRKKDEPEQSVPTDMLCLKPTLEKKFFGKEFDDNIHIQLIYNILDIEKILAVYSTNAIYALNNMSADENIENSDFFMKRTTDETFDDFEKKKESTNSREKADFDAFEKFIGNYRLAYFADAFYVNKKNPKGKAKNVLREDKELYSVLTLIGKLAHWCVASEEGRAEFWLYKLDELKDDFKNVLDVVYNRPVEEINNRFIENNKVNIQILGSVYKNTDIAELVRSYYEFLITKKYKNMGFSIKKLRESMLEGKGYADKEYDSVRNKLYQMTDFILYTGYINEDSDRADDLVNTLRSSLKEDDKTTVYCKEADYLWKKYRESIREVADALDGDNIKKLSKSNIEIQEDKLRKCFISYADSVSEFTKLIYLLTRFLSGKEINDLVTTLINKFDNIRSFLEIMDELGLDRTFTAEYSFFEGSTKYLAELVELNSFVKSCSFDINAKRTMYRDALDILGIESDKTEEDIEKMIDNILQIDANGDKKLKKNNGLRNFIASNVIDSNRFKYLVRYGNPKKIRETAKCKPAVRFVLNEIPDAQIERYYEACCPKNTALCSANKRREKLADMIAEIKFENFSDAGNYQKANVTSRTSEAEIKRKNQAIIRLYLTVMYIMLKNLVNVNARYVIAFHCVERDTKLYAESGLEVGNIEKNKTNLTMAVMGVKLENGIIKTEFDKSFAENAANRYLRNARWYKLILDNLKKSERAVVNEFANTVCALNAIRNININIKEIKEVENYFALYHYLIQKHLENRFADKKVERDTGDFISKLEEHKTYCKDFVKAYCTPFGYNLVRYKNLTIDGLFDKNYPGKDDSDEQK
# B1: target 1 insU 3' of 21,insA 3' of 11 (mixed)
# RNA 1: CACCCGUGCAAAAAUGCAGGGGUCUAAAACUGAGCGGAUAACCUCUCUAUGG
# RNA 2: GGGAAUGGAUCCACAUCUACGAAUUCGUACCUAUAGAGAGGUAUAUCCGCUCACCGAGAUCGGAAGAGCACACGU
# B2: target 1 A1U,A16U (mixed)
# RNA 1: CACCCGUGCAAAAAUGCAGGGGUCUAAAACUGAGCGGAUAACCUCUCUAUGG
# RNA 2: GGGAAUGGAUCCACAUCUACGAAUUCGUACCAUAGUGAGGUUAUCCGCUCUCCGAGAUCGGAAGAGCACACGU
# B3: target 1 insU 3' of 17,insG 3' of 1 (mixed)
# RNA 1: CACCCGUGCAAAAAUGCAGGGGUCUAAAACUGAGCGGAUAACCUCUCUAUGG
# RNA 2: GGGAAUGGAUCCACAUCUACGAAUUCGUACCAUAGUAGAGGUUAUCCGCUCAGCCGAGAUCGGAAGAGCACACGU
# B4: target 2 MT 5'PFS ACG 3'PFS AGA (mixed)
# RNA 1: CACCCGUGCAAAAUUGCAGGGGUCUAAAACCUUCUCCAAAUUGUUUCAUCCU
# RNA 2: GGGAAUGGAUCCACAUCUACGAAUUCACGAGGAUGAAACAAUUUGGAGAAGAGAAGAUCGGAAGAGCACACGU
# B5: target 2 MT 5'PFS AGA 3'PFS UUU (mixed)
# RNA 1: CACCCGUGCAAAAUUGCAGGGGUCUAAAACCUUCUCCAAAUUGUUUCAUCCU
# RNA 2: GGGAAUGGAUCCACAUCUACGAAUUCAGAAGGAUGAAACAAUUUGGAGAAGUUUAGAUCGGAAGAGCACACGU
# B6: target 2 MT 5'PFS AAU 3'PFS AUU (mixed)
# RNA 1: CACCCGUGCAAAAUUGCAGGGGUCUAAAACCUUCUCCAAAUUGUUUCAUCCU
# RNA 2: GGGAAUGGAUCCACAUCUACGAAUUCAAUAGGAUGAAACAAUUUGGAGAAGAUUAGAUCGGAAGAGCACACGU
# B7: target 2 MT 5'PFS CGG 3'PFS CCG (mixed)
# RNA 1: CACCCGUGCAAAAUUGCAGGGGUCUAAAACCUUCUCCAAAUUGUUUCAUCCU
# RNA 2: GGGAAUGGAUCCACAUCUACGAAUUCCGGAGGAUGAAACAAUUUGGAGAAGCCGAGAUCGGAAGAGCACACGU
# B8: target 2 MT 5'PFS GAA 3'PFS UGC (mixed)
# RNA 1: CACCCGUGCAAAAUUGCAGGGGUCUAAAACCUUCUCCAAAUUGUUUCAUCCU
# RNA 2: GGGAAUGGAUCCACAUCUACGAAUUCGAAAGGAUGAAACAAUUUGGAGAAGUGCAGAUCGGAAGAGCACACGU
# B9: target 2 MT 5'PFS CAU 3'PFS CGC (mixed)
# RNA 1: CACCCGUGCAAAAUUGCAGGGGUCUAAAACCUUCUCCAAAUUGUUUCAUCCU
# RNA 2: GGGAAUGGAUCCACAUCUACGAAUUCCAUAGGAUGAAACAAUUUGGAGAAGCGCAGAUCGGAAGAGCACACGU
# B10: target 2 MT 5'PFS UUC 3'PFS UUC (mixed)
# RNA 1: CACCCGUGCAAAAUUGCAGGGGUCUAAAACCUUCUCCAAAUUGUUUCAUCCU
# RNA 2: GGGAAUGGAUCCACAUCUACGAAUUCUUCAGGAUGAAACAAUUUGGAGAAGUUCAGAUCGGAAGAGCACACGU
# B11: target 2 MT 5'PFS AGA 3'PFS UUA (mixed)
# RNA 1: CACCCGUGCAAAAUUGCAGGGGUCUAAAACCUUCUCCAAAUUGUUUCAUCCU
# RNA 2: GGGAAUGGAUCCACAUCUACGAAUUCAGAAGGAUGAAACAAUUUGGAGAAGUUAAGAUCGGAAGAGCACACGU
# B12: target 2 MT 5'PFS AGG 3'PFS ACC (mixed)
# RNA 1: CACCCGUGCAAAAUUGCAGGGGUCUAAAACCUUCUCCAAAUUGUUUCAUCCU
# RNA 2: GGGAAUGGAUCCACAUCUACGAAUUCAGGAGGAUGAAACAAUUUGGAGAAGACCAGAUCGGAAGAGCACACGU
# B13: target 2 MT 5'PFS AUU 3'PFS UUU (mixed)
# RNA 1: CACCCGUGCAAAAUUGCAGGGGUCUAAAACCUUCUCCAAAUUGUUUCAUCCU
# RNA 2: GGGAAUGGAUCCACAUCUACGAAUUCAUUAGGAUGAAACAAUUUGGAGAAGUUUAGAUCGGAAGAGCACACGU
# B14: target 2 MT 5'PFS ACG 3'PFS AGC (mixed)
# RNA 1: CACCCGUGCAAAAUUGCAGGGGUCUAAAACCUUCUCCAAAUUGUUUCAUCCU
# RNA 2: GGGAAUGGAUCCACAUCUACGAAUUCACGAGGAUGAAACAAUUUGGAGAAGAGCAGAUCGGAAGAGCACACGU
# B15: target 2 MT 5'PFS AAU 3'PFS AUA (mixed)
# RNA 1: CACCCGUGCAAAAUUGCAGGGGUCUAAAACCUUCUCCAAAUUGUUUCAUCCU
# RNA 2: GGGAAUGGAUCCACAUCUACGAAUUCAAUAGGAUGAAACAAUUUGGAGAAGAUAAGAUCGGAAGAGCACACGU
# B16: target 2 MT 5'PFS GAA 3'PFS UGU (mixed)
# RNA 1: CACCCGUGCAAAAUUGCAGGGGUCUAAAACCUUCUCCAAAUUGUUUCAUCCU
# RNA 2: GGGAAUGGAUCCACAUCUACGAAUUCGAAAGGAUGAAACAAUUUGGAGAAGUGUAGAUCGGAAGAGCACACGU
# B17: target 2 MT 5'PFS AGA 3'PFS UUC (mixed)
# RNA 1: CACCCGUGCAAAAUUGCAGGGGUCUAAAACCUUCUCCAAAUUGUUUCAUCCU
# RNA 2: GGGAAUGGAUCCACAUCUACGAAUUCAGAAGGAUGAAACAAUUUGGAGAAGUUCAGAUCGGAAGAGCACACGU
# B18: target 2 MT 5'PFS UUA 3'PFS CUU (mixed)
# RNA 1: CACCCGUGCAAAAUUGCAGGGGUCUAAAACCUUCUCCAAAUUGUUUCAUCCU
# RNA 2: GGGAAUGGAUCCACAUCUACGAAUUCUUAAGGAUGAAACAAUUUGGAGAAGCUUAGAUCGGAAGAGCACACGU
# B19: target 2 MT 5'PFS UCU 3'PFS CCG (mixed)
# RNA 1: CACCCGUGCAAAAUUGCAGGGGUCUAAAACCUUCUCCAAAUUGUUUCAUCCU
# RNA 2: GGGAAUGGAUCCACAUCUACGAAUUCUCUAGGAUGAAACAAUUUGGAGAAGCCGAGAUCGGAAGAGCACACGU
# B20: target 2 MT 5'PFS CGG 3'PFS CCC (mixed)
# RNA 1: CACCCGUGCAAAAUUGCAGGGGUCUAAAACCUUCUCCAAAUUGUUUCAUCCU
# RNA 2: GGGAAUGGAUCCACAUCUACGAAUUCCGGAGGAUGAAACAAUUUGGAGAAGCCCAGAUCGGAAGAGCACACGU
# B21: target 2 MT 5'PFS AAU 3'PFS AUC (mixed)
# RNA 1: CACCCGUGCAAAAUUGCAGGGGUCUAAAACCUUCUCCAAAUUGUUUCAUCCU
# RNA 2: GGGAAUGGAUCCACAUCUACGAAUUCAAUAGGAUGAAACAAUUUGGAGAAGAUCAGAUCGGAAGAGCACACGU
# B22: target 2 MT 5'PFS CGC 3'PFS CUU (mixed)
# RNA 1: CACCCGUGCAAAAUUGCAGGGGUCUAAAACCUUCUCCAAAUUGUUUCAUCCU
# RNA 2: GGGAAUGGAUCCACAUCUACGAAUUCCGCAGGAUGAAACAAUUUGGAGAAGCUUAGAUCGGAAGAGCACACGU
# B23: target 2 MT 5'PFS CGG 3'PFS CCA (mixed)
# RNA 1: CACCCGUGCAAAAUUGCAGGGGUCUAAAACCUUCUCCAAAUUGUUUCAUCCU
# RNA 2: GGGAAUGGAUCCACAUCUACGAAUUCCGGAGGAUGAAACAAUUUGGAGAAGCCAAGAUCGGAAGAGCACACGU
# B24: target 2 MT 5'PFS AGA 3'PFS UUG (mixed)
# RNA 1: CACCCGUGCAAAAUUGCAGGGGUCUAAAACCUUCUCCAAAUUGUUUCAUCCU
# RNA 2: GGGAAUGGAUCCACAUCUACGAAUUCAGAAGGAUGAAACAAUUUGGAGAAGUUGAGAUCGGAAGAGCACACGU
# B25: target 2 MT 5'PFS AGG 3'PFS ACU (mixed)
# RNA 1: CACCCGUGCAAAAUUGCAGGGGUCUAAAACCUUCUCCAAAUUGUUUCAUCCU
# RNA 2: GGGAAUGGAUCCACAUCUACGAAUUCAGGAGGAUGAAACAAUUUGGAGAAGACUAGAUCGGAAGAGCACACGU
# B26: target 2 MT 5'PFS UCG 3'PFS UAU (mixed)
# RNA 1: CACCCGUGCAAAAUUGCAGGGGUCUAAAACCUUCUCCAAAUUGUUUCAUCCU
# RNA 2: GGGAAUGGAUCCACAUCUACGAAUUCUCGAGGAUGAAACAAUUUGGAGAAGUAUAGAUCGGAAGAGCACACGU
# B27: target 2 MT 5'PFS UUA 3'PFS CUA (mixed)
# RNA 1: CACCCGUGCAAAAUUGCAGGGGUCUAAAACCUUCUCCAAAUUGUUUCAUCCU
# RNA 2: GGGAAUGGAUCCACAUCUACGAAUUCUUAAGGAUGAAACAAUUUGGAGAAGCUAAGAUCGGAAGAGCACACGU
# B28: target 2 MT 5'PFS GUG 3'PFS UGC (mixed)
# RNA 1: CACCCGUGCAAAAUUGCAGGGGUCUAAAACCUUCUCCAAAUUGUUUCAUCCU
# RNA 2: GGGAAUGGAUCCACAUCUACGAAUUCGUGAGGAUGAAACAAUUUGGAGAAGUGCAGAUCGGAAGAGCACACGU
# Target: T1, EsCas13d, nuclease-dead
# Experiment: crRNA (strand 1, pre-loaded); Mg2+; 40 mM Tris-HCl pH 7.5, 150 mM NaCl, 6 mM MgCl2, 1 mM DTT, 0.1% Tween-20, 0.2 mg/ml BSA; 25 C; 10 min per concentration, then washed
# Conditions: tags: His6-TwinStrep-SUMO cleaved; N-terminal SNAP kept (SNAP-Surface 488); label: 3' end held by stalled T7 RNA polymerase
row,Binder,Kd
1,B1,49 ± 5 nM
2,B2,70 ± 13 nM
3,B3,17.7 ± 2.1 nM
4,B4,7.8 ± 2.4 nM
5,B5,13.2 ± 2.6 nM
6,B6,5.3 ± 0.6 nM
7,B7,4.7 ± 0.4 nM
8,B8,13.2 ± 2.6 nM
9,B9,3.4 ± 0.6 nM
10,B10,31 ± 8 nM
11,B11,11.7 ± 2.2 nM
12,B12,15 ± 6 nM
13,B13,32 ± 7 nM
14,B14,6.4 ± 1.1 nM
15,B15,4.5 ± 0.9 nM
16,B16,18 ± 2.7 nM
17,B17,18 ± 5 nM
18,B18,36 ± 6 nM
19,B19,17.4 ± 3 nM
20,B20,~19 nM
21,B21,6.3 ± 0.7 nM
22,B22,14 ± 4 nM
23,B23,37 ± 18 nM
24,B24,6.1 ± 1 nM
25,B25,8.1 ± 1.8 nM
26,B26,34 ± 14 nM
27,B27,20.9 ± 3.3 nM
28,B28,17.1 ± 2.5 nM
